B1: Tetraspanin-12 (Homo sapiens), O95859 (parent)
chain: MAREDSVKCLRCLLYALNLLFWLMSISVLAVSAWMRDYLNNVLTLTAETRVEEAVILTYFPVVHPVMIAVCCFLIIVGMLGYCGTVKRNLLLLAWYFGSLLVIFCVELACGVWTYEQELMVPVQWSDMVTLKARMTNYGLPRYRWLTHAWNFFQREFKCCGVVYFTDWLEMTEMDWPPDSCCVREFPGCSKQAHQEDLSDLYQEGCGKKMYSFLRGTKQLQVLRFLGISIGVTQILAMILTITLLWALYYDRREPGTDQMMSLKNDNSQHLSCPSVELLKPSLSRIFEHTSMANSFNTHFEMEEL

Variants of: B1
Conditions: with ada10_human ADAM10, O14672
ada10_human ADAM10, O14672, sequence (O14672 whole entry): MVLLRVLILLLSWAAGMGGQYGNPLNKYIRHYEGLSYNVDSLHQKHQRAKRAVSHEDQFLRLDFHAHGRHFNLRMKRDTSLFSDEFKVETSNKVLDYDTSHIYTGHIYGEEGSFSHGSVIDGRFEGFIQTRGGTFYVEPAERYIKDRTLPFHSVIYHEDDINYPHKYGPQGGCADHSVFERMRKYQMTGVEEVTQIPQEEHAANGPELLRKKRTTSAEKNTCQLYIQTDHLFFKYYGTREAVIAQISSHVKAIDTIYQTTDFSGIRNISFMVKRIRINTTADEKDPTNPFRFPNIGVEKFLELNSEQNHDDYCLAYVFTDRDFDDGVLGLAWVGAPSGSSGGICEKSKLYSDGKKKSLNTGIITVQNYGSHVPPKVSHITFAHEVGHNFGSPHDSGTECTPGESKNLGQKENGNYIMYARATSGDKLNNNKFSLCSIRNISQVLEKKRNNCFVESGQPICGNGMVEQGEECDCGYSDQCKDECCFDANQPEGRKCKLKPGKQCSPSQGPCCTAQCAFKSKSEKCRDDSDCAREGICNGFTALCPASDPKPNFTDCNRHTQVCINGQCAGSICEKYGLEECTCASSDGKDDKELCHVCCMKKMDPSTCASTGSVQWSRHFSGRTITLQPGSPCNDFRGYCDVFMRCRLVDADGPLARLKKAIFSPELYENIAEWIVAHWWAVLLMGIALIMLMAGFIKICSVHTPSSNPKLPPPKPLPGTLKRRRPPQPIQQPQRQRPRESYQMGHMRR

| Variant | effect of a mutation on the interaction |
| --- | --- |
| MAREDSVKSLRSLLYALNLLFWLMSISVLAVSAWMRDYLNNVLTLTAETRVEEAVILTYFPVVHPVMIAVCCFLIIVGMLGYSGTVKRNLLLLAWYFGSLLVIFCVELACGVWTYEQELMVPVQWSDMVTLKARMTNYGLPRYRWLTHAWNFFQREFKCCGVVYFTDWLEMTEMDWPPDSCCVREFPGCSKQAHQEDLSDLYQEGCGKKMYSFLRGTKQLQVLRFLGISIGVTQILAMILTITLLWALYYDRREPGTDQMMSLKNDNSQHLSCPSVELLKPSLSRIFEHTSMANSFNTHFEMEEL [C9S;C12S;C83S] | disrupting interaction strength |
| MAREDSVKCLRCLLYALNLLFWLMSISVLAVSAWMRDYLNNVLTLTAETRVEEAVILTYFPVVHPVMIAVCCFLIIVGMLGYCGTVKENLLLLAWYFGSLLVIFCVELACGVWTYEQELMVPVQWSDMVTLKARMTNYGLPRYRWLTHAWNFFQREFKCCGVVYFTDWLEMTEMDWPPDSCCVREFPGCSKQAHQEDLSDLYQEGCGKKMYSFLRGTKQLQVLRFLGISIGVTQILAMILTITLLWALYYDRREPGTDQMMSLKNDNSQHLSCPSVELLKPSLSRIFEHTSMANSFNTHFEMEEL [R88E] | decreasing interaction strength |
